Results: patent publication US20220089702A1 (published 2022)

Molecular target: recombinant human tau
Test: SPR

Kd: 5.77 nM
B1: 7G6 (antibody, V domains shown)
VH: EVQLQQSGAELVRPGALVKLSCKASGFNIKDYYIHWVKQRPEQGLEWIGWIDPENGETVYDPKFQGKASITSDTSSNTAYLQLRSLTSEDTAVYYSTSLDFWGQGTSVTVSS
VL: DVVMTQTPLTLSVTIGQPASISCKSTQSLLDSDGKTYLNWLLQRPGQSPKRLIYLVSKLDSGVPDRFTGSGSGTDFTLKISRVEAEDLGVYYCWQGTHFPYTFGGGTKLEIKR
